This note sets out measurements from patent US20060020109A1 (Harvard, published 2006).

For test [1], the target named is T1, soluble recombinant HLA-DR2 molecules (MHC class II HLA-DR2 protein) (human).
T1 construct: Soluble, empty protein from Drosophila S2 cells, captured on plates by antibody LB3.1; also called MHC class II DR2 protein; recombinant HLA-DR2 protein
Put plainly: competition ELISA on soluble HLA-DR2; competitor biotinylated Cop 1 (1.5 µM). (In general: In an ELISA, binding on a coated surface is turned into a signal by an enzyme label.)

For test [2], the target named is HLA-DR2 (DRB1*1501) on antigen presenting cells (MGAR, L466) (human). As to the kind of experiment: cell-based or functional assay.

B1: synthetic peptide #55 (peptide)
peptide: AAEKYAAYAAAAAAA
As to B1, the IC50 in test [1] is greater than 1 mM. Moreover, the “Inhibition of IL-2 production (%), Hy1B” value in test [2] turned out to be 30%.

B2: synthetic peptide #44 (peptide)
peptide: EKAAYAAAAAAAAAA
Consider B2, for which, in test [1], the IC50 is greater than 1 mM. The “Inhibition of IL-2 production (%), Hy1B” value in test [2] came to 0%.

B3: synthetic peptide #91 (peptide)
peptide: EEAKYAAYKAAAAAA
Turning to B3, the IC50 in test [1] was greater than 1 mM. The “Inhibition of IL-2 production (%), Hy1B” value in test [2] amounted to 54%.

B4: synthetic peptide #71 (peptide)
peptide: EAEKYAAYAAAAAAA
For B4, the IC50 in test [1] was greater than 1 mM. Also, the “Inhibition of IL-2 production (%), Hy1B” value in test [2] turned out to be 25%.

B5: synthetic peptide #89 (peptide)
peptide: EAAEYAAYKAAAAAA
Consider B5, for which the half-inhibitory concentration (IC50) in test [1] was greater than 1 mM. For the same molecule, in test [2], the “Inhibition of IL-2 production (%), Hy1B” value stood at 41%.

B6: synthetic peptide #49 (peptide)
peptide: AEKAAAAYAAAAAAA
For B6, the IC50 in test [1] was greater than 1 mM. Moreover, in test [2], the “Inhibition of IL-2 production (%), Hy1B” value turned out to be 36%.

B7: synthetic peptide #84 (peptide)
peptide: AAKEYAAYKAAAAAA
As to B7, the IC50 in test [1] is greater than 1 mM. Besides, in test [2], the “Inhibition of IL-2 production (%), Hy1B” value stood at 42%.

B8: synthetic peptide #88 (peptide)
peptide: EAEAYAAYKAAAAAA
For the molecule B8, the IC50 in test [1] is greater than 1 mM. In addition, the “Inhibition of IL-2 production (%), Hy1B” value in test [2] turned out to be 55%.

B9: synthetic peptide #76 (peptide)
peptide: AAAEYAAYKAAAAAA
In the case of B9, the IC50 in test [1] was greater than 1 mM. Also, the “Inhibition of IL-2 production (%), Hy1B” value in test [2] is 52%.

B10: synthetic peptide #58 (peptide)
peptide: AAKEYAAYAAAAAAA
For the molecule B10, in test [1], the IC50 was greater than 1 mM. Besides, the “Inhibition of IL-2 production (%), Hy1B” value in test [2] was found to be 16%.

B11: synthetic peptide #90 (peptide)
peptide: EEAAYAAYKAAAAAA
Turning to B11, the IC50 in test [1] is greater than 1 mM. For the same molecule, the “Inhibition of IL-2 production (%), Hy1B” value in test [2] amounted to 22%.

B12: synthetic peptide #48 (peptide)
peptide: AKAEAAAYAAAAAAA
As for B12, the IC50 in test [1] was greater than 1 mM. Besides, the “Inhibition of IL-2 production (%), Hy1B” value in test [2] was 27%.

B13: synthetic peptide #74 (peptide)
peptide: EAKEYAAYAAAAAAA
In the case of B13, in test [1], the IC50 is greater than 1 mM. The “Inhibition of IL-2 production (%), Hy1B” value in test [2] was 22%.

B14: synthetic peptide #80 (peptide)
peptide: AEEAYAAYKAAAAAA
Consider B14, for which the IC50 in test [1] was greater than 1 mM. Moreover, in test [2], the “Inhibition of IL-2 production (%), Hy1B” value was 30%.

B15: synthetic peptide #41 (peptide)
peptide: EKKAYAAAAAAAAAA
Consider B15, for which the IC50 in test [1] is greater than 1 mM. The “Inhibition of IL-2 production (%), Hy1B” value in test [2] came to 7%.

B16: synthetic peptide #82 (peptide)
peptide: AKEEYAAYKAAAAAA
On to B16, for which the IC50 in test [1] was greater than 1 mM. The “Inhibition of IL-2 production (%), Hy1B” value in test [2] was determined as 47%.

B17: synthetic peptide #92 (peptide)
peptide: EKEAYAAYKAAAAAA
B17: the IC50 in test [1] is greater than 1 mM. Besides, the “Inhibition of IL-2 production (%), Hy1B” value in test [2] turned out to be 42%.

B18: synthetic peptide #115 (peptide)
peptide: AAAKYAAAAAAAAAA
On to B18, for which, in test [1], the 50% inhibitory concentration (IC50) was greater than 1 mM. Moreover, the “Inhibition of IL-2 production (%), Hy1B” value in test [2] stood at 25%.

B19: synthetic peptide #60 (peptide)
peptide: AEAKYAAYAAAAAAA
For the molecule B19, the IC50 in test [1] was greater than 1 mM. Further, in test [2], the “Inhibition of IL-2 production (%), Hy1B” value amounted to 0%.

B20: synthetic peptide #72 (peptide)
peptide: EKAEYAAYAAAAAAA
Consider B20, for which the IC50 in test [1] is greater than 1 mM. Further, the “Inhibition of IL-2 production (%), Hy1B” value in test [2] was 39%.

B21: synthetic peptide #68 (peptide)
peptide: AAKKYEAYAAAAAAA
As to B21, the IC50 in test [1] was greater than 1 mM. The “Inhibition of IL-2 production (%), Hy1B” value in test [2] is 41%.

B22: synthetic peptide #79 (peptide)
peptide: AEAKYAAYKAAAAAA
For B22, in test [1], the IC50 was greater than 1 mM. In addition, in test [2], the “Inhibition of IL-2 production (%), Hy1B” value came to 50%.

B23: synthetic peptide #40 (peptide)
peptide: AEKEYAAAAAAAAAA
Take B23: the IC50 in test [1] is greater than 1 mM. Besides, the “Inhibition of IL-2 production (%), Hy1B” value in test [2] turned out to be 22%.

B24: synthetic peptide #116 (peptide)
peptide: AAAKVAAAAAAAAAA
Consider B24, for which the IC50 in test [1] was greater than 1 mM. Also, in test [2], the “Inhibition of IL-2 production (%), Hy1B” value is 30%.

B25: synthetic peptide #59 (peptide)
peptide: AKAEYAAYAAAAAAA
As for B25, the IC50 in test [1] was greater than 1 mM. The “Inhibition of IL-2 production (%), Hy1B” value in test [2] was found to be 29%.

B26: synthetic peptide #67 (peptide)
peptide: AEAKYEAYAAAAAAA
With B26, in test [1], the IC50 is greater than 1 mM. The “Inhibition of IL-2 production (%), Hy1B” value in test [2] was determined as 41%.

B27: synthetic peptide #69 (peptide)
peptide: AAEKYEAYAAAAAAA
With B27, the half-inhibitory concentration (IC50) in test [1] is greater than 1 mM. Besides, the “Inhibition of IL-2 production (%), Hy1B” value in test [2] is 45%.

B28: synthetic peptide #83 (peptide)
peptide: AEEKYAAYKAAAAAA
As for B28, in test [1], the IC50 is greater than 1 mM. In addition, the “Inhibition of IL-2 production (%), Hy1B” value in test [2] stood at 43%.

B29: synthetic peptide #77 (peptide)
peptide: AAEKYAAYKAAAAAA
Take B29: the IC50 in test [1] was greater than 1 mM. Further, the “Inhibition of IL-2 production (%), Hy1B” value in test [2] is 61%.

B30: synthetic peptide #47 (peptide)
peptide: KEKAAAAYAAAAAAA
Consider B30, for which the IC50 in test [1] was greater than 1 mM. Further, in test [2], the “Inhibition of IL-2 production (%), Hy1B” value turned out to be 13%.

B31: synthetic peptide #114 (peptide)
peptide: AAEKVAAAAAAAAAA
With B31, the IC50 in test [1] was greater than 1 mM. The “Inhibition of IL-2 production (%), Hy1B” value in test [2] was determined as 34%.

B32: synthetic peptide #75 (peptide)
peptide: EAKAYAAYAAAAAAA
On to B32, for which, in test [1], the IC50 was greater than 1 mM. The “Inhibition of IL-2 production (%), Hy1B” value in test [2] amounted to 19%.

B33: synthetic peptide #65 (peptide)
peptide: AAKAYEAYAAAAAAA
For B33, in test [1], the IC50 is greater than 1 mM. Further, the “Inhibition of IL-2 production (%), Hy1B” value in test [2] is 22%.

B34: synthetic peptide #78 (peptide)
peptide: AKEAYAAYKAAAAAA
As to B34, the IC50 in test [1] is greater than 1 mM. Moreover, the “Inhibition of IL-2 production (%), Hy1B” value in test [2] came to 59%.

B35: synthetic peptide #39 (peptide)
peptide: AKEAYAAAAAAAAAA
With B35, the IC50 in test [1] is greater than 1 mM. For the same molecule, in test [2], the “Inhibition of IL-2 production (%), Hy1B” value was 32%.

B36: synthetic peptide #87 (peptide)
peptide: EKAAYAAYKAAAAAA
Consider B36, for which, in test [1], the 50% inhibitory concentration (IC50) was greater than 1 mM. Moreover, in test [2], the “Inhibition of IL-2 production (%), Hy1B” value is 40%.

B37: synthetic peptide #38 (peptide)
peptide: AKEEYAAAAAAAAAA
With B37, the IC50 in test [1] is greater than 1 mM. For the same molecule, in test [2], the “Inhibition of IL-2 production (%), Hy1B” value worked out at 17%.

B38: synthetic peptide #85 (peptide)
peptide: EAAKYAAYKAAAAAA
In the case of B38, the IC50 in test [1] was greater than 1 mM. In test [2], the “Inhibition of IL-2 production (%), Hy1B” value is 25%.

B39: synthetic peptide #54 (peptide)
peptide: AEKKYAAYAAAAAAA
On to B39, for which the IC50 in test [1] was greater than 1 mM. Besides, in test [2], the “Inhibition of IL-2 production (%), Hy1B” value was determined as 38%.

B40: synthetic peptide #73 (peptide)
peptide: EKEAYAAYAAAAAAA
Regarding B40, the IC50 in test [1] was greater than 1 mM. In addition, in test [2], the “Inhibition of IL-2 production (%), Hy1B” value was 23%.

B41: synthetic peptide #46 (peptide)
peptide: EKEAAAAYAAAAAAA
B41: the IC50 in test [1] was greater than 1 mM. Besides, in test [2], the “Inhibition of IL-2 production (%), Hy1B” value came out at 0%.

B42: synthetic peptide #62 (peptide)
peptide: AKEEYAAYAAAAAAA
B42: in test [1], the 50% inhibitory concentration (IC50) was greater than 1 mM. For the same molecule, the “Inhibition of IL-2 production (%), Hy1B” value in test [2] was 22%.

B43: synthetic peptide #37 (peptide)
peptide: AKKEYAAAAAAAAAA
In the case of B43, in test [1], the IC50 was greater than 1 mM. In test [2], the “Inhibition of IL-2 production (%), Hy1B” value amounted to 5%.

B44: synthetic peptide #105 (peptide)
peptide: EEKAYAAAAAAAAAA
Turning to B44, the IC50 in test [1] was greater than 1 mM. Further, the “Inhibition of IL-2 production (%), Hy1B” value in test [2] came out at 36%.

B45: synthetic peptide #81 (peptide)
peptide: AKAEYAAYKAAAAAA
B45: the IC50 in test [1] was greater than 1 mM. Besides, in test [2], the “Inhibition of IL-2 production (%), Hy1B” value amounted to 28%.

B46: synthetic peptide #86 (peptide)
peptide: EAKAYAAYKAAAAAA
Regarding B46, the IC50 in test [1] is greater than 1 mM. Besides, in test [2], the “Inhibition of IL-2 production (%), Hy1B” value was found to be 29%.

B47: synthetic peptide #63 (peptide)
peptide: AKEKYAAYAAAAAAA
Consider B47, for which the concentration for half-maximal inhibition (IC50) in test [1] is greater than 1 mM. Moreover, the “Inhibition of IL-2 production (%), Hy1B” value in test [2] was 29%.

B48: synthetic peptide #57 (peptide)
peptide: AKEAYAAYAAAAAAA
For B48, the IC50 in test [1] is greater than 1 mM. In addition, the “Inhibition of IL-2 production (%), Hy1B” value in test [2] is 0%.

B49: synthetic peptide #56 (peptide)
peptide: AEEKYAAYAAAAAAA
Consider B49, for which the IC50 in test [1] is greater than 1 mM. In test [2], the “Inhibition of IL-2 production (%), Hy1B” value is 16%.

One may read the IC50 as the concentration at which inhibition is half-maximal.
